Key:
[1] = molecular target: DNase I (Sigma, St. Louis, Mo.)
[2] = molecular target: α-actin purified from rabbit skeletal muscle, globular (G-actin) form, P68135

B1: highly purified human recombinant ICE (p20/p10) (Merck) (protein)
chain 1: NPAMPTSSGSEGNVKLCSLEEAQRIWKQKSAEIYPIMDKSSRTRLALIICNEEFDSIPRRTGAEVDITGMTMLLQNLGYSVDVKKNLTASDMTTELEAFAHRPEHKTSDSTFLVFMSHGIREGICGKKHSEQVPDILQLNAIFNMLNTKNCPSLKDKPKVIIIQACRGDSPGVVWFKD
chain 2: AIKKAHIEKDFIAFCSSTPDNVSWRHPTMGSVFIGRLIEHMQEYACSCDVEEIFRKVRFSFEQPDGRAQMPTTERVTLTRCFYLFPGH
- cleavage of DNase I and its endonuclease activity [1]: Control incubations without actin demonstrated that ICE neither cleaved DNase I nor affected its endonuclease activity
- cleavage of purified actin (SDS-polyacrylamide gel electrophoresis) [2]: In the presence of ICE, actin was cleaved, resulting in a disappearance of the 42 kd band, and the appearance of bands at approximately 41 kd, 30 kd, and 14 kd
